PMC3079584, “A Cytoplasmic Complex Mediates Specific mRNA Recognition and Localization in Yeast” (PLoS Biology, 2011)

B1: His-She3p (334–425) (domain or fragment, Saccharomyces cerevisiae)
chain: GPLGSMGNSSNNKRRSFYTASPLLSSGSIPKSASPVLPGVKRTASVRKPSSSSSKTNVTHNNDPSTSPTISVPPGVTRTVSSTHKKKGNSMVVHGAQS
notes: it precedes G334 at the N-terminus of the construct
B2: MBP-She3p(334–425)-His (domain or fragment, Saccharomyces cerevisiae, UniProt P38272 334-425, looked up)
chain: GNSSNNKRRSFYTASPLLSSGSIPKSASPVLPGVKRTASVRKPSSSSSKTNVTHNNDPSTSPTISVPPGVTRTVSSTHKKKGNSMVVHGAQS
B3: MBP-She3p(354–425)-His (domain or fragment, Saccharomyces cerevisiae, UniProt P38272 354-425, looked up)
chain: GSIPKSASPVLPGVKRTASVRKPSSSSSKTNVTHNNDPSTSPTISVPPGVTRTVSSTHKKKGNSMVVHGAQS

Assays:
She2p (wild type) [1] = target: T1, She2p (wild type) (Saccharomyces cerevisiae, UniProt P36068 1-246); test: SEC; analytical; She2p, His-She3p C-terminal fragment and RNA (ternary complex formation, Figure 4E); which RNA is not told in the legend; details: both partners purified
T1 construct: She2p, Saccharomyces cerevisiae, Gene ID 853728; also called She2p (wt); wild-type She2p

She2p (wild type) [2] = target: T1, She2p (wild type); test: pull-down; His-tagged She3p (full length, point mutants, or MBP-She3p fragment-His) on nickel sepharose, no RNA; 7.5–10 µM of each protein, HNMD-buffer (20 mM HEPES pH 7.8, 200 mM NaCl, 2 mM MgCl2, 2 mM DTT) with 30–50 mM imidazole, 30–60 min at 4°C; SDS-PAGE, Coomassie; details: both partners purified

T1 sequence (P36068 whole entry, the tested form may be a part): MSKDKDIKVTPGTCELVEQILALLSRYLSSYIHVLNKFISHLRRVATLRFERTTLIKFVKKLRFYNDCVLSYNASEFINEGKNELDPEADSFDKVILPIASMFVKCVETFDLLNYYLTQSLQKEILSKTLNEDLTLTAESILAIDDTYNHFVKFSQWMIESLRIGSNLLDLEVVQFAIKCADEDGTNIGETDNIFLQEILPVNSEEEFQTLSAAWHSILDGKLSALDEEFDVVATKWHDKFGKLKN

Binder | binding result (She2p (wild type) [1]) | binding result (She2p (wild type) [2])
B1 | binds | –
B2 | – | binds
B3 | – | binds
